From paper PMC7614990 (Science (New York, N.Y.), 2021) come the findings set out here.

The chains are these.
B2: SF3B1 (natural protein)
chain: MAKIAKTHEDIEAQIREIQGKKAALDEAQGVGLDSTGYYDQEIYGGSDSRFAGYVTSIAATELEDDDDDYSSSTSLLGQKKPGYHAPVALLNDIPQSTEQYDPFAEHRPPKIADREDEYKKHRRTMIISPERLDPFADGGKTPDPKMNARTYMDVMREQHLTKEEREIRQQLAEKAKAGELKVVNGAAASQPPSKRKRRWDQTADQTPGATPKKLSSWDQAETPGHTPSLRWDETPGRAKGSETPGATPGSKIWDPTPSHTPAGAATPGRGDTPGHATPGHGGATSSARKNRWDETPKTERDTPGHGSGWAETPRTDRGGDSIGETPTPGASKRKSRWDETPASQMGGSTPVLTPGKTPIGTPAMNMATPTPGHIMSMTPEQLQAWRWEREIDERNRPLSDEELDAMFPEGYKVLPPPAGYVPIRTPARKLTATPTPLGGMTGFHMQTEDRTMKSVNDQPSGNLPFLKPDDIQYFDKLLVDVDESTLSPEEQKERKIMKLLLKIKNGTPPMRKAALRQITDKAREFGAGPLFNQILPLLMSPTLEDQERHLLVKVIDRILYKLDDLVRPYVHKILVVIEPLLIDEDYYARVEGREIISNLAKAAGLATMISTMRPDIDNMDEYVRNTTARAFAVVASALGIPSLLPFLKAVCKSKKSWQARHTGIKIVQQIAILMGCAILPHLRSLVEIIEHGLVDEQQKVRTISALAIAALAEAATPYGIESFDSVLKPLWKGIRQHRGKGLAAFLKAIGYLIPLMDAEYANYYTREVMLILIREFQSPDEEMKKIVLKVVKQCCGTDGVEANYIKTEILPPFFKHFWQHRMALDRRNYRQLVDTTVELANKVGAAEIISRIVDDLKDEAEQYRKMVMETIEKIMGNLGAADIDHKLEEQLIDGILYAFQEQTTEDSVMLNGFGTVVNALGKRVKPYLPQICGTVLWRLNNKSAKVRQQAADLISRTAVVMKTCQEEKLMGHLGVVLYEYLGEEYPEVLGSILGALKAIVNVIGMHKMTPPIKDLLPRLTPILKNRHEKVQENCIDLVGRIADRGAEYVSAREWMRICFELLELLKAHKKAIRRATVNTFGYIAKAIGPHDVLATLLNNLKVQERQNRVCTTVAIAIVAETCSPFTVLPALMNEYRVPELNVQNGVLKSLSFLFEYIGEMGKDYIYAVTPLLEDALMDRDLVHRQTASAVVQHMSLGVYGFGCEDSLNHLLNYVWPNVFETSPHVIQAVMGALEGLRVAIGPCRMLQYCLQGLFHPARKVRDVYWKIYNSIYIGSQDALIAHYPRIYNDDKNTYIRYELDYIL

Common to all, as to assay: cryo-EM structure
The experiment “SF3B1” concerns the target B2.
In another experiment the target is SF3B6 (human (endogenous in FreeStyle 293-F), UniProt Q9Y3B4 1-125).
For the next experiment, the target named is PHF5A (human (endogenous in FreeStyle 293-F), UniProt Q7RTV0 1-110).

B1: SF3B3 (natural protein)
chain: MFLYNLTLQRATGISFAIHGNFSGTKQQEIVVSRGKILELLRPDPNTGKVHTLLTVEVFGVIRSLMAFRLTGGTKDYIVVGSDSGRIVILEYQPSKNMFEKIHQETFGKSGCRRIVPGQFLAVDPKGRAVMISAIEKQKLVYILNRDAAARLTISSPLEAHKANTLVYHVVGVDVGFENPMFACLEMDYEEADNDPTGEAAANTQQTLTFYELDLGLNHVVRKYSEPLEEHGNFLITVPGGSDGPSGVLICSENYITYKNFGDQPDIRCPIPRRRNDLDDPERGMIFVCSATHKTKSMFFFLAQTEQGDIFKITLETDEDMVTEIRLKYFDTVPVAAAMCVLKTGFLFVASEFGNHYLYQIAHLGDDDEEPEFSSAMPLEEGDTFFFQPRPLKNLVLVDELDSLSPILFCQIADLANEDTPQLYVACGRGPRSSLRVLRHGLEVSEMAVSELPGNPNAVWTVRRHIEDEFDAYIIVSFVNATLVLSIGETVEEVTDSGFLGTTPTLSCSLLGDDALVQVYPDGIRHIRADKRVNEWKTPGKKTIVKCAVNQRQVVIALTGGELVYFEMDPSGQLNEYTERKEMSADVVCMSLANVPPGEQRSRFLAVGLVDNTVRIISLDPSDCLQPLSMQALPAQPESLCIVEMGGTEKQDELGERGSIGFLYLNIGLQNGVLLRTVLDPVTGDLSDTRTRYLGSRPVKLFRVRMQGQEAVLAMSSRSWLSYSYQSRFHLTPLSYETLEFASGFASEQCPEGIVAISTNTLRILALEKLGAVFNQVAFPLQYTPRKFVIHPESNNLIIIETDHNAYTEATKAQRKQQMAEEMVEAAGEDERELAAEMAAAFLNENLPESIFGAPKAGNGQWASVIRVMNPIQGNTLDLVQLEQNEAAFSVAVCRFSNTGEDWYVLVGVAKDLILNPRSVAGGFVYTYKLVNNGEKLEFLHKTPVEEVPAAIAPFQGRVLIGVGKLLRVYDLGKKKLLRKCENKHIANYISGIQTIGHRVIVSDVQESFIWVRYKRNENQLIIFADDTYPRWVTTASLLDYDTVAGADKFGNICVVRLPPNTNDEVDEDPTGNKALWDRGLLNGASQKAEVIMNYHVGETVLSLQKTTLIPGGSESLVYTTLSGGIGILVPFTSHEDHDFFQHVEMHLRSEHPPLCGRDHLSFRSYYFPVKNVIDGDLCEQFNSMEPNKQKNVSEELDRTPPEVSKKLEDIRTRYAF
Consider B1, for which, in the experiment with SF3B1, the binding result was “binds”. In the case of B2, the binding result with SF3B6 and in the experiment with PHF5A was “binds” throughout.

B3: HTATSF1 in the 17S U2 snRNP eluted with 3C protease (natural protein)
chain: SGTNLDGNDEFDEQLRMQELYGDGKDGDTQTDAGGEPDSLGQQPTDTPYEWDLDKKAWFPKITEDFIATYQANYGFSNDGASSSTANVEDVHARTAEEPPQEKAPEPTDARKKGEKRKAESGWFHVEEDRNTNVYVSGLPPDITVDEFIQLMSKFGIIMRDPQTEEFKVKLYKDNQGNLKGDGLCCYLKRESVELALKLLDEDEIRGYKLHVEVAKFQLKGEYDASKKKKKCKDYKKKLSMQQKQLDWRPERRAGPSRMRHERVVIIKNMFHPMDFEDDPLVLNEIREDLRVECSKFGQIRKLLLFDRHPDGVASVSFRDPEEADYCIQTLDGRWFGGRQITAQAWDGTTDYQVEETSREREERLRGWEAFLNAPEANRGLRRSDSVSASERAGPSRARHFSEHPSTSKMNAQETATGMAFEEPIDEKKFEKTEDGGEFEEGASENNAKESSPEKEAEEGCPEKESEEGCPKRGFEGSCSQKESEEGNPVRGSEEDSPKKESKKKTLKNDCEENGLAKESEDDLNKESEEEVGPTKESEEDDSEKESDEDCSEKQSEDGSEREFEENGLEKDLDEEGSEKELHENVLDKELEENDSENSEFEDDGSEKVLDEEGSEREFDEDSDEKEEEEDTYEKVFDDESDEKEDEEYADEKGLEAADKKAEEGDADEKLFEESDDKEDEDADGKEVEDADEKLFEDDDSNEKLFDEEEDSSEKLFDDSDERGTLGGFGSVEEGPLSTGSSFILSSDDDDDDI
For the molecule B3, the binding result in the experiment with SF3B1 is listed as “binds”.
